One assay has as its target T1, B7H3 (UniProt Q5ZPR3 29-466, limits assumed).
T1 sequence (looked up): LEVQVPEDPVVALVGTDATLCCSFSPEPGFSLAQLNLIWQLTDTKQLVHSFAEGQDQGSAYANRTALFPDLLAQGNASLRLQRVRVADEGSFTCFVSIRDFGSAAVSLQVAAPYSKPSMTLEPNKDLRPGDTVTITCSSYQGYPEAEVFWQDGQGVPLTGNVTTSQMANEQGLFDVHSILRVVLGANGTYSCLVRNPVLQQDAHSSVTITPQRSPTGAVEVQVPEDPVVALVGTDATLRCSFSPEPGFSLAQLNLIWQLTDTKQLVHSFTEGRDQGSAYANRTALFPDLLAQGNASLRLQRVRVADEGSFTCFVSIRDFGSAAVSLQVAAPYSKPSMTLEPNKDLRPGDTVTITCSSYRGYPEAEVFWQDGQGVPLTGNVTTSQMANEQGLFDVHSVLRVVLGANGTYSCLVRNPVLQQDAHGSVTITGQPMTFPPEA
Put plainly: FCM or ELISA (graded summary table). In general terms: In an ELISA, binding on a coated surface is turned into a signal by an enzyme label.

The target of a further assay is T2, CD137 (UniProt Q07011 24-186, limits assumed).
T2 construct: also called 4-1BB
Put plainly: FCM or ELISA (graded summary table).

Another assay deals with T3, PD-L1 (human, UniProt Q9NZQ7 19-238, limits assumed).
T3 construct: The reporter assay used Raji cells expressing human PD-L1
Nature of the assay: FCM or ELISA.

T3 sequence (Q9NZQ7 19-238 limits assumed): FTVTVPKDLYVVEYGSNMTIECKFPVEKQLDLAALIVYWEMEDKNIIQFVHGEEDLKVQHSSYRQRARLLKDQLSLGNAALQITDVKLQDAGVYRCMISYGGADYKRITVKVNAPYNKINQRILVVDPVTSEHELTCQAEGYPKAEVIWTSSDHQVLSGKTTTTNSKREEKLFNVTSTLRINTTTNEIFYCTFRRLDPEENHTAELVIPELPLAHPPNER

B1: Ly1963 (other)
chain 1: QVQLVQSGAEVKKPGASVKVSCKASGYTFTSYVMHWVRQKPGQGLEWIGYINPYNEGTESTDKFKGRATMTSDKSTSTVYMELSSLRSEDTAVYYCASIYYGYEGTYFGVWGQGTLVTVSSASTKGPSVFPLAPSSKSTSGGTAALGCLVKDYFPEPVTVSWNSGALTSGVHTFPAVLQSSGLYSLSSVVTVPSSSLGTQTYICNVNHKPSNTKVDKKVEPKSCGGGGSGGGGSGGGGSGGGGSEVQLVESGGGLVQPGGSLRLSCAASGFTFSTYAMNWVRQAPGKGLEWVGRIRSKYNNYATYYADSVKGRFTISRDDSKNSLYLQMNSLKTEDTAVYYCVRHGNFGNSYVSWFAYWGQGTLVTVSSGGGGSDKTHTCPPCPAPEAAGPSVFLFPPKPKDTLMISRTPEVTCVVVDVSHEDPEVKFNWYVDGVEVHNAKTKPREEQYNSTYRVVSVLTVLHQDWLNGKEYKCKVSNKALPAPIEKTISKAKGQPREPQVYTLPPSREEMTKNQVSLWCLVKGFYPSDIAVEWESNGQPENNYKTTPPVLDSDGSFFLYSKLTVDKSRWQQGNVFSCSVMHEALHNHYTQKSLSLSPGGGGGSGGGGSGGGGSGGGGSQVQLVQSGAEVKKPGASVKVSCKASGYTFAGFEMHWVRQAPGQGLEWMGAIDPKTGGTDYNQKFKDRVTMTRDTSISTAYMELSRLRSDDTAVYYCARDLGYFDVWGQGTLVTVSS
chain 2: QVQLVQSGAEVKKPGASVKVSCKASGYTFTSYVMHWVRQKPGQGLEWIGYINPYNEGTESTDKFKGRATMTSDKSTSTVYMELSSLRSEDTAVYYCASIYYGYEGTYFGVWGQGTLVTVSSASTKGPSVFPLAPSSKSTSGGTAALGCLVKDYFPEPVTVSWNSGALTSGVHTFPAVLQSSGLYSLSSVVTVPSSSLGTQTYICNVNHKPSNTKVDKKVEPKSCGGGGSGGGGSGGGGSGGGGSQAVVTQEPSLTVSPGGTVTLTCRSSTGAVTTSNYANWVQQKPGQAPRGLIGGTNKRAPWTPARFSGSLLGGKAALTITGAQAEDEADYYCALWYSNLWVFGGGTKLTVLGGGGSDKTHTCPPCPAPEAAGPSVFLFPPKPKDTLMISRTPEVTCVVVDVSHEDPEVKFNWYVDGVEVHNAKTKPREEQYNSTYRVVSVLTVLHQDWLNGKEYKCKVSNKALPAPIEKTISKAKGQPREPQVYTLPPSREEMTKNQVSLSCAVKGFYPSDIAVEWESNGQPENNYKTTPPVLDSDGSFFLVSKLTVDKSRWQQGNVFSCSVMHEALHNHYTQKSLSLSPGGGGGSGGGGSGGGGSGGGGSDIQMTQSPSSLSASVGDRVTITCRASQDIRSNLNWYQQKPGGAVKLLIYYTSRLHSGVPSRFSGSGSGTDYTLTISSLQPEDFATYFCQQSEKLPRTFGGGTKVEIR
light: EIVLTQSPATLSLSPGERATLSCRASSSVSYMHWYQQKPGQAPRPWIYATSNLASGIPARFSGSRSGTDYTLTISSLEPEDFAVYYCQQWSSNTLTFGGGTKVEIKRTVAAPSVFIFPPSDEQLKSGTASVVCLLNNFYPREAKVQWKVDNALQSGNSQESVTEQDSKDSTYSLSSTLTLSKADYEKHKVYACEVTHQGLSSPVTKSFNRGEC
notes: Tri-specific antibody B7H3 (two Fabs) / CD3 (central Fv) / CD137 (terminal Fv)
As to B1, the binding result with B7H3 and with CD137 was “binds” each time.

B2: Ly2122 (bispecific antibody, human IgG1, kappa)
chain 1: QVQLVQSGAEVKKPGASVKVSCKASGYTFTSYVMHWVRQKPGQGLEWIGYINPYNEGTESTDKFKGRATMTSDKSTSTVYMELSSLRSEDTAVYYCASIYYGYEGTYFGVWGQGTLVTVSSASTKGPSVFPLAPSSKSTSGGTAALGCLVKDYFPEPVTVSWNSGALTSGVHTFPAVLQSSGLYSLSSVVTVPSSSLGTQTYICNVNHKPSNTKVDKKVEPKSCDKTHTCPPCPAPEAAGPSVFLFPPKPKDTLMISRTPEVTCVVVDVSHEDPEVKFNWYVDGVEVHNAKTKPREEQYNSTYRVVSVLTVLHQDWLNGKEYKCKVSNKALPAPIEKTISKAKGQPREPQVYTLPPSREEMTKNQVSLWCLVKGFYPSDIAVEWESNGQPENNYKTTPPVLDSDGSFFLYSKLTVDKSRWQQGNVFSCSVMHEALHNHYTQKSLSLSPGGGGGSGGGGSGGGGSGGGGSQVQLVQSGAEVKKPGASVKVSCKASGYTFAGFEMHWVRQAPGQGLEWMGAIDPKTGGTDYNQKFKDRVTMTRDTSISTAYMELSRLRSDDTAVYYCARDLGYFDVWGQGTLVTVSS
chain 2: QVQLVQSGAEVKKPGASVKVSCKASGYTFTSYVMHWVRQKPGQGLEWIGYINPYNEGTESTDKFKGRATMTSDKSTSTVYMELSSLRSEDTAVYYCASIYYGYEGTYFGVWGQGTLVTVSSASTKGPSVFPLAPSSKSTSGGTAALGCLVKDYFPEPVTVSWNSGALTSGVHTFPAVLQSSGLYSLSSVVTVPSSSLGTQTYICNVNHKPSNTKVDKKVEPKSCDKTHTCPPCPAPEAAGPSVFLFPPKPKDTLMISRTPEVTCVVVDVSHEDPEVKFNWYVDGVEVHNAKTKPREEQYNSTYRVVSVLTVLHQDWLNGKEYKCKVSNKALPAPIEKTISKAKGQPREPQVYTLPPSREEMTKNQVSLSCAVKGFYPSDIAVEWESNGQPENNYKTTPPVLDSDGSFFLVSKLTVDKSRWQQGNVFSCSVMHEALHNRFTQKSLSLSPGGGGGSGGGGSGGGGSGGGGSDIQMTQSPSSLSASVGDRVTITCRASQDIRSNLNWYQQKPGGAVKLLIYYTSRLHSGVPSRFSGSGSGTDYTLTISSLQPEDFATYFCQQSEKLPRTFGGGTKVEIR
light: B1 light
notes: Bispecific B7H3 (two Fabs) / CD137 (terminal Fv)
As to B2, the binding result with B7H3 and with CD137 was “binds” in each case.

B3: Ly2438 (bispecific antibody)
chain 1: QVQLVQSGAEVKKPGASVKVSCKASGYTFTDFWMSWVRQAPGQGLEWMGQIYPNTGTTHSNEKFKGRVTMTRDTSTSTVYMELSSLRSEDTAVYYCARSYHISTTPNWFAYWGQGTLVTVSSASTKGPSVFPLAPSSKSTSGGTAALGCLVKDYFPEPVTVSWNSGALTSGVHTFPAVLQSSGLYSLSSVVTVPSSSLGTQTYICNVNHKPSNTKVDKKVEPKSCGGGGSGGGGSGGGGSGGGGSEVQLVESGGGLVQPGGSLRLSCAASGFTFTNYGLHWVRQAPGKGLEWVSSISPSGGVTYYRDSVKGRFTISRDNSKNTLYLQMNSLRAEDTAVYYCAKPFLGWGGANWIAHWGQGTLVTVSSGGGGSDKTHTCPPCPAPEAAGPSVFLFPPKPKDTLMISRTPEVTCVVVDVSHEDPEVKFNWYVDGVEVHNAKTKPREEQYNSTYRVVSVLTVLHQDWLNGKEYKCKVSNKALPAPIEKTISKAKGQPREPQVYTLPPSREEMTKNQVSLWCLVKGFYPSDIAVEWESNGQPENNYKTTPPVLDSDGSFFLYSKLTVDKSRWQQGNVFSCSVMHEALHNHYTQKSLSLSPG
chain 2: QVQLVQSGAEVKKPGASVKVSCKASGYTFTDFWMSWVRQAPGQGLEWMGQIYPNTGTTHSNEKFKGRVTMTRDTSTSTVYMELSSLRSEDTAVYYCARSYHISTTPNWFAYWGQGTLVTVSSASTKGPSVFPLAPSSKSTSGGTAALGCLVKDYFPEPVTVSWNSGALTSGVHTFPAVLQSSGLYSLSSVVTVPSSSLGTQTYICNVNHKPSNTKVDKKVEPKSCGGGGSGGGGSGGGGSGGGGSDIQMTQSPSSLSASVGDRVTITCLASEDISNDLAWYQQKPGKAPKLLIYFVDRLLDGVPSRFSGSGSGTDFTLTISSLQPEDFATYYCQQSYKYPPTFGQGTKLEIKGGGGSDKTHTCPPCPAPEAAGPSVFLFPPKPKDTLMISRTPEVTCVVVDVSHEDPEVKFNWYVDGVEVHNAKTKPREEQYNSTYRVVSVLTVLHQDWLNGKEYKCKVSNKALPAPIEKTISKAKGQPREPQVYTLPPSREEMTKNQVSLSCAVKGFYPSDIAVEWESNGQPENNYKTTPPVLDSDGSFFLVSKLTVDKSRWQQGNVFSCSVMHEALHNRFTQKSLSLSPG
light: DIQMTQSPSSLSASVGDRVTITCKASQNVYKKLEWYQQKPGKVPKVLIYHTNILQTGVPSRFSGSGSGTDYTLTISSLQPEDVATYYCYQWNSGPTFGGGTKVEIKRTVAAPSVFIFPPSDEQLKSGTASVVCLLNNFYPREAKVQWKVDNALQSGNSQESVTEQDSKDSTYSLSSTLTLSKADYEKHKVYACEVTHQGLSSPVTKSFNRGEC
notes: PD-L1/CD40: two PD-L1 Fabs (Ly076), central CD40 Fv (TM559)
B3: the binding result in the assay with PD-L1 is recorded as “binds”.

B4: Ly2444 (bispecific antibody, human IgG1, kappa)
chain 1: QVQLVQSGAEVKKPGASVKVSCKASGYTFTDFWMSWVRQAPGQGLEWMGQIYPNTGTTHSNEKFKGRVTMTRDTSTSTVYMELSSLRSEDTAVYYCARSYHISTTPNWFAYWGQGTLVTVSSASTKGPSVFPLAPSSKSTSGGTAALGCLVKDYFPEPVTVSWNSGALTSGVHTFPAVLQSSGLYSLSSVVTVPSSSLGTQTYICNVNHKPSNTKVDKKVEPKSCDKTHTCPPCPAPEAAGPSVFLFPPKPKDTLMISRTPEVTCVVVDVSHEDPEVKFNWYVDGVEVHNAKTKPREEQYNSTYRVVSVLTVLHQDWLNGKEYKCKVSNKALPAPIEKTISKAKGQPREPQVYTLPPSREEMTKNQVSLWCLVKGFYPSDIAVEWESNGQPENNYKTTPPVLDSDGSFFLYSKLTVDKSRWQQGNVFSCSVMHEALHNHYTQKSLSLSPGGGGGSGGGGSGGGGSGGGGSEVQLVESGGGLVQPGGSLRLSCAASGFTFTNYGLHWVRQAPGKGLEWVSSISPSGGVTYYRDSVKGRFTISRDNSKNTLYLQMNSLRAEDTAVYYCAKPFLGWGGANWIAHWGQGTLVTVSS
chain 2: QVQLVQSGAEVKKPGASVKVSCKASGYTFTDFWMSWVRQAPGQGLEWMGQIYPNTGTTHSNEKFKGRVTMTRDTSTSTVYMELSSLRSEDTAVYYCARSYHISTTPNWFAYWGQGTLVTVSSASTKGPSVFPLAPSSKSTSGGTAALGCLVKDYFPEPVTVSWNSGALTSGVHTFPAVLQSSGLYSLSSVVTVPSSSLGTQTYICNVNHKPSNTKVDKKVEPKSCDKTHTCPPCPAPEAAGPSVFLFPPKPKDTLMISRTPEVTCVVVDVSHEDPEVKFNWYVDGVEVHNAKTKPREEQYNSTYRVVSVLTVLHQDWLNGKEYKCKVSNKALPAPIEKTISKAKGQPREPQVYTLPPSREEMTKNQVSLSCAVKGFYPSDIAVEWESNGQPENNYKTTPPVLDSDGSFFLVSKLTVDKSRWQQGNVFSCSVMHEALHNRFTQKSLSLSPGGGGGSGGGGSGGGGSGGGGSDIQMTQSPSSLSASVGDRVTITCLASEDISNDLAWYQQKPGKAPKLLIYFVDRLLDGVPSRFSGSGSGTDFTLTISSLQPEDFATYYCQQSYKYPPTFGQGTKLEIK
light: B3 light
notes: PD-L1/CD40: two PD-L1 Fabs (Ly076), terminal CD40 Fv (TM559)
In the case of B4, the binding result in the assay with PD-L1 was “binds”.
